Measured values published in the DeepSol protein solubility set.

test: soluble on expression in E. coli; label from the status in PepcDB or PDB records

| Sequence | soluble on expression in E. coli |
| --- | --- |
| GMKNVTKASIDDLDSIVHIDIDVIGNDSRRNYIKHSIDEGRCVIVKEDNSISGFLTYDTNFFDCTFLSLIIVSPTKRRRGYASSLLSYMLSHSPTQKIFSSTNESNESMQKVFNANGFIRSGIVENLDEGDPEIIFYTKKLRA | soluble |
| MIQTKDIIELTDTYGANNYHPLPIVISKAEGVWVEDPEGNRYMDLLSAYSAVNQGHRHPKIINALIDQANRVTLTSRAFHSDQLGPWYEKVAKLTNKEMVLPMNTGAEAVETAIKTARRWAYDVKKVEANRAEIIVCEDNFHGRTMGAVSMSSNEEYKRGFGPMLPGIIVIPYGDLEALKAAITPNTAAFILEPIQGEAGINIPPAGFLKEALEVCKKENVLFVADEIQTGLGRTGKVFACDWDNVTPDMYILGKALGGGVFPISCAAANRDILGVFEPGSHGSTFGGNPLACAVSIAALEVLEEEKLTERSLQLGEKLVGQLKEIDNPMITEVRGKGLFIGIELNEPARPYCEQLKAAGLLCKETHENVIRIAPPLVISEEDLEWAFQKIKAVLS | not soluble |
| MGSDKIHHHHHHIRSATACSSTDNVVSMKLTEHIGRLTVMGLMLPKHRPFFKERMGMNVQKEGVGEPTMAFTPTQRLHLGAEAEVWKGEWFGKAAVRKQRRPRSWRHPNLDHRLGVRRMISEARLLIRTRKAGLSVPSVWDLDYEGGQLIIEHLEGRPLIDVLNDPATEKEVAKTTLHRVGHSVRRLHREATTHGDLSSNNILIEGEHVHLIDFGLASIEYDVERFGIDLHVLDEILGASHPQWEGAIDWVIEGYLSAEEELGPAPALQGGSVPSAKEVHTRLEDIRTRVRYH | not soluble |
| MGSDKIHHHHHHMEIIKKKFPKIKRDYLDTLQINIGYKCNQACSHCHVDSSPSRTEMMSDDIIKLIPKVIKANEIKLLDITGGAPELHPKFKQLVIEVRSLNVEVMDRCNLTILKEPGYESLAGFLASNKVQITASLPCYLEGNVDKQRGKGVFEKSILALKQLNNLGYGIKDKGLLLNLVYNPSTPQLPPSQKELEDIYRRELKERYGIFFSNLYVLANMPINRYENYLKTIGKLEEYNKLLKDNHNPGNINSVMCRSTLSVDWKGFLYDCDFNQQLGMKRNGNVKHLNDLLIPLVSLKNNPISTGNHCFGCTAGAGSSCGGELT | not soluble |
| NQLSGLHSMEEQLAKKLQIKKCLVVQGDSDDTPWVREEMGRVAVEQLDMALTEKRNIVAVMGGSTMATVAEMMTTDFAKGRELLFVPGRGGIGEDLDNQANTICDKMATKTNTKHRVLYVPEQLGEEAYRSLLKEPAIQEGLRLVQSANAIILGIGDALAMAKRRHTGEDVLEKIIRRKAVGEAFGYYFDEQGEVVHKVPTFGLQFEDLAQIPHIIAVAGGTSKAKAIKSYMKSAPKNTILITDEGAAKSLLK | soluble |
| MKKLMITQEAGVATVLIKNPPVNILTIDLINELNAFILSLKDDRETKVVVFKSFHEAFFIAHLDLNVINGTSGGQAASIEFNHMIANIKAMKQLSIAVVDGVARGGGNEFVMACDLAYGTENSAFAQPELYINIPTGGQGAVQFARRLGKGKALQALLTGADFTAQQAETLNIITQFVLKAELDVFLAQLLSVIVGWEIRDIVMYKEIIAASIKDEAVGTELELRYFLERAREEKTQTIIAAFLKH | soluble |
| MSLTNLTVHTLEKDDIDSIIEIENLCFPTPWTKESMEGELRNKFAKYVVIKNNNLVVGYGGLWLIIDEGHITNIAVHPEFRGMGIGNKILEELIKLCEKRNIPSMTLEVRISNTIAQNLYKKFGFKEAGVRKKYYGDNDEDALIMWRNEGHHHHHH | soluble |
| MSLYFSGEPAQIAEIKRLASGAVTPLYRRATNEGIQLFLAGSAGLLQTTEDVRFEPCPGLTAAGRGVVSPENIAFTRWLTHLQDGVLLDEQNCLMLHELWLQSGTGRRRWEELPDDARESITALFTPKRGDWCDIWSNEDVSVWWNRLCDNVLPEKTMPFDLLTVLSTRLDVEVNGFNGGVLNGVPSAYHWYTEQYGVKWPCGYEVNISSQGDNFIQVDFDTPWCQPESDVIAVLSRRFSCMLEHWYAGQGCNFCGWQRYERGELVDVLWGELEWSSPTDDDELPEVTAPEWIVDKVAHYGGEGHHHHHH | not soluble |
| MVDRVIEMAIQQQPMTEPVGIPVIILKEGTQRSYGREALRANIMAVRAIAQILKTTYGPKGMDKMLVDSLGDITITNNGATILDKMDVAHPAAKMLVQISKGQEDEAGDGTKTTVIFAGELLKEAEKLLDINIHPTIIVEGYKEALRKASEVIESIAEPVSYDDVEKLKLIAKTSLNSKAVAEARDYFAELAVEAVRTVAERRGDRWYVDLNNIQIVKKHGGSLRDTRLVRGIVLDKEVVHPDMPRRVENARIALLDTPLEIEKPEIDLEISITSPEQIKALYEKQERILQEKIEKIAATGANVVITQKGIDDVAQHFLAKKGILAVRRVKRSDIEKIARATGARIVTDIEDLRPEDLGYAELVEERKVGEDKMVFIEGAKNPKSVTILLRGGFERLVDEAERSLHDALSVVADAIMDGKIVAGGGAVEAEVAKVLYEYASKLPGKTQLAVEAFARAVEALPQALAHNAGHDPIEVLVKLRSAHEKPENKWYGVDLDTGEIVDMWSRGVLEPMRVKLNALKAATEVASLILRIDDVIAARKEEEEKEEKRGGEEE | soluble |
| MPKKRTPYETWRKNIRPIIWKRDNKQCIRCKKTVLLSECHIDHIISGLHGDNRLQNLRTLCRRCHVLRSDRLHRGMIAKALKDGVITADWRQYVWEEESLLKRLEHHHHHH | not soluble |
| MSTDLQHIRIGLTNNHPCSYLPERQERVAVALDAELHTEQNYQLLMANGFRRSGDTIYKPHCERCHACQPIRISIPDFVLSRSQKRLLSKAKSLRWEMKTEMDAEWFELYSRYICKRHKNGTMYPPKRDEFSRFAQTTWLTTLFLHIYDESNQLLGVAVTDVMAQCSSAFYTFFEPDYPLSLGTLAVLYQVNYCQQNNEQWLYLGYQIDECPAMNYKTRFQRHQRLVNQRWQGLEHHHHHH | soluble |
| VSDGEQAKSRRRRGRRRGRRAAATAENHMDAQPAGDATPTPATAKRSRSRSPRRGSTRMRTVHETSAGGLVIDGIDGPRDAQVAALIGRVDRRGRLLWSLPKGHIELGETAEQTAIREVAEETGIRGSVLAALGRIDYWFVTDGRRVHKTVHHYLMRFLGGELSDEDLEVAEVAWVPIRELPSRLAYADERRLAEVADELIDKLQSDGPAALPPLPPSSPRRRPQTHSRARHADDSAPGQHNGPGPGP | not soluble |
| MDPKFLVVEIDSKERALQLVQVMLENGFARFMLLDDLSRHPTLDRIQREEPRISRDELRETASSPVTFETRHSPYPVHEQKVLFPSFSQVSNSMVTSTGIRQEASSVGVGPIEDDDIVEEEEEEDIRLTSKPCVKRRYDHHAEEQEYRDQLMSLLSGEPEIVPIGVNSNDEPSGSNSDSAAKKAKSVGDYHECQLCGVRVKTPRSGRWNLQMHVIALHCVGRQYKCKQCDYLDYRKSTMRKHTVSQHGSDIPPHNITDNIMKAEWHAAMIKCFPEFAHRTGFLN | not soluble |
| SIRLPAHLRLQPIYWSRDDVAQWLKWAENEFSLSPIDSNTFEMNGKALLLLTKEDFRYRSPHSGDVLYELLQHILKQRDLEAEAAAAEAAAKA | soluble |
| GPGSMQMEEKQAFFVESVDGRKFKMVIRGDLGKLSVAKIRRYLKSYGVPENQLLLAGNRVLEDAMLGEQFGLENEGVLHLREPTTVQHLAPAAVPSTAQSRTQLQQKPELSYEPQSAWRETRYEPAAHDARQMQREIERLQRQVEAAEARNADLEHQLEQVAESSAPYPPRGGAGGARRMSNSSDLDGLQVAKQSLKILAQKLGVSLQFDKNLTCVVGTDADFSILLTYDPATERLYIYSSLLTELPDHPPLRMKLYEVLLEGSLLGREVCGGGVGLSTQNNVVVLTTSLPVRHCSPEALCEVMPLFVETLVRWRSLIDELVR | soluble |
| MNKWSRLYVITVRRTFPGRRNIVLTQYWNKSKKMSDESNDVKWNDALTPLQLMVLRDKATERPNTGAYLHTNESGVYHCANCDRPLYSSKAKFDARCGWPAFYEEVSPGAITYHRDNSLMPARVEICCARCGGHLGHVFEGEGWKQLLNLPKDTRHCVNSASLNLKKD | not soluble |
| AEDIFGELFNEANNFYIRANSLQDRIDRLAVKVTQLDSTVEEVSLQDINMKKAFKSSTVQDQQVVSKNSIPNPVADIYNQSDKPPPLNILTPYRDDKKDGLKFYTDPSYFFDLWKEKMLQDTEDKRKEKRRQKEQKRIDGTTREVKKVRKARNRRQEWNMMAYDKELRPDNRLSQSVYHGASSEGSLSPDTRSHASDVTDYSYPATPNHSLHPQPVTPSYAAGDVPPHGPASQAAEHEYRPPSASARHMALNRPQQPPPPPPPQAPEGSQASAPMAPADYGMLPAQIIEYYNPSGPPPPPPPPVIPSAQTAFVSPLQMPMQPPFPASASSTHAAPPHPPSTGLLVTAPPPPGPPPPPPGPPGPGSSLSSSPMHGPPVAEAKRQEPAQPPISDARSDLLAAIRMGIQLKKVQEQREQEAKREPVGNDVATILSRRIAVEYSDSDDDSEFDENDWSD | soluble |
| MGSSRKTANAATNNFPCHGSCPEPSFQIQVIARGVRRRRSPIDQPSMEADVDTDIIDHLKTLHTSEIDARNGYEEALEDAEGKGLTSLFRDMIALHHGNAEELAGMLINAGETADDSGSFMSVVHRTIMSVRSLFDGLDGSVLPGLIDGEKRNLSKYDDALKAIAGIPSISSTLSAQRAKISEKIALMEQQKAAYEAAT | not soluble |
| MGSDKIHHHHHHMKKKSMIVLTSAFVLLSAFSCGGGGKATGTNEQSEKVVVNVPQFDADSAYLYVKNQVDFGPRVPNTKEHVACGNYLAGKLEAFGAKVTNQYADLIAYDGTLLKARNIIGSYKPESKKRIALFAHWDTRPWADNDADEKNHHTPILGANDGASGVGALLEIARLVNQQQPELGIDIIFLDAEDYGTPQFYEGKHKEEAWCLGSQYWSRNPHVQGYNARFGILLDMVGGENSVFLKEGYSEEFAPDINKKVWKAAKKAGYGKTFIDERGDTITDDHLFINRLARIKTIDIIPNDPETGFPPTWHTIHDNMDHIDKNTLKAVGQTVLEVIYNEK | not soluble |
| MKDLIELFWLRYTELQSAVGKNESDKIAVLERELELLLERIVGRKTESSEDIREQFRFAIDLLNHEAEDLGCVQRNSELLRTLVDRYVGMPLKAKVVGDEDEDTLAWHHRHLILDEDMLNDLDEPVVIVSPGYRVSFANALDAFQRNAPEGLIGCHIAELVGVHRFQNILREKLDNCFKGDTSKYTYAEDENGRTVVKSLEMSPCYSSAYKLVGAMVVIREIADRRRRAAG | not soluble |
| MGSDKIHHHHHHVELHQLKDLLTEKLQATSLIHATISAPRLKSNDLRRIKVKPILLRDTYAIQLEFQHERIIKHENLSIEEFIVRMDQFFDEFRQFLFRFETEEVQFQLSKKMKVSIKTTVKEPIQAELSHNRKKSHLLEDGVPVPFLIRLGVMTEEGQVKRQKYDKFKQINRFLEFVEDSIAVLPKGRTLRILDFGCGKSYLTFALYHYLKIVKGFDLNVTGLDLKKEVIEECAAIAADLGYDDLSFRVGDVHDYDQDTEVDLMVTLHACDVATDVALARAVDWNASVILSVPCCQKELNRQLDCSPLDVMLQHGLIQEKFASLATDSIRAELLTLVGYETQLLEFIDLENTPKNILIRAYKNPKRPTEEKIDRYIAFRELLHAKPYLERELSGRLGQISSKLVQ | not soluble |
